Test results from patent publication US20250152729A1 (CANCER RESEARCH TECHNOLOGY, published 2025).
Where two headings read alike, the source gives them in different places.

Key:
[1] = target: T1, human SEMA4A expressed on cells (UniProt ID Q9H3S1, isoform 1) (human, UniProt Q9H3S1 33-761); experiment: flow cytometry on NCI-H929 cells endogenously expressing human SEMA4A, 10-point titration
T1 construct: Cell-surface SEMA4A: endogenous on MM.1S, NCI-H929 and Karpas-25 cells, or expi293 cells transfected with Origene SC323738; also called human Semaphorin4A; SEMA4A endogenously expressed on MM.1S cells
T1 sequence: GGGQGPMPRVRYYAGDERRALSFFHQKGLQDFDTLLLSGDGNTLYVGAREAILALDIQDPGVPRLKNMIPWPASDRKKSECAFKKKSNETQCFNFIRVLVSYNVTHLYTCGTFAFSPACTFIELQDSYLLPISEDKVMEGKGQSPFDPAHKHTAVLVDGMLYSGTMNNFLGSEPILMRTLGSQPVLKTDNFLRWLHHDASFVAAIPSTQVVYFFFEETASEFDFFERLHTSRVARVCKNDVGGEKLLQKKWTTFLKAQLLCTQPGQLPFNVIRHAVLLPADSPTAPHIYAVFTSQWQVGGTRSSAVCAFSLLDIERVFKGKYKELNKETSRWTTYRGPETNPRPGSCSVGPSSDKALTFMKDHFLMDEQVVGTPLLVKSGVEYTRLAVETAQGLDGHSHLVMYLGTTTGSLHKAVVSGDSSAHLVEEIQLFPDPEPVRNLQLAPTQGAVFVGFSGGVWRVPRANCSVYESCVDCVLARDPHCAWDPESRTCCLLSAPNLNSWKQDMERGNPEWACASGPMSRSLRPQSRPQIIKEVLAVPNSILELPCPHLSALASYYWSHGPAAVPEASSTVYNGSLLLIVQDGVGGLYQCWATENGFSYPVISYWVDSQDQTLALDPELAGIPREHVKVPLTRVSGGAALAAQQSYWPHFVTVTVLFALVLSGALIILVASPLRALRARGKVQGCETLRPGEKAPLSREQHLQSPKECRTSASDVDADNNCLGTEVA
Procedure: Binding of SEMA4A specific IgGs to membrane-bound SEMA4A was evaluated using flow cytometry in NCI-H929 cells that endogenously express human SEMA4A. Binding assays were performed by incubating the anti-SEMA4A antibodies with 200,000 cells for 3 hours at 4° C. followed by two washes with PBS, 1% (w/v) BSA (FACS buffer). A range of antibody concentrations were evaluated using a 10-point, 3-fold dilution series. Cells were then incubated with Alexa Fluor 647 conjugated AffiniPure Fab Fragment Goat Anti-Human IgG (H+L) (Jackson Immunoresearch Europe Limited, Ely, Cambridgeshire) diluted 1:100, at 4° C. for 1 hour, followed by two washes in FACS buffer. Cells were then stained with LIVE/DEAD™ Fixable Violet Dead Cell Stain (Life Technologies, L34955) for 30 minutes at 4° C., followed by two washes in FACS buffer. Cells were then fixed using BD Cell Fix (BD Biosciences, 340181). Fluorescence of live, single cells was measured using a Novocyte™ 3000 flow cytometer and Novoexpress software (Acea Biosciences, Inc, San Diego, CA). Data were analysed using FlowJo software (FlowJo, LLC, Ashland, OR). Mean fluorescence intensity values were plotted against antibody conjugate concentrations and KD values determined using Prism software (GraphPad Software Inc, La Jolla, CA).

[2] = target: T2, human SEMA4B expressed on expi293 cells (human, UniProt Q9NPR2 44-837); experiment: Mirrorball direct binding, dilution series on expi293 cells transiently transfected with human SEMA4B, anti-human Alexa Fluor 647
T2 construct: whole, on cells
T2 sequence (looked up): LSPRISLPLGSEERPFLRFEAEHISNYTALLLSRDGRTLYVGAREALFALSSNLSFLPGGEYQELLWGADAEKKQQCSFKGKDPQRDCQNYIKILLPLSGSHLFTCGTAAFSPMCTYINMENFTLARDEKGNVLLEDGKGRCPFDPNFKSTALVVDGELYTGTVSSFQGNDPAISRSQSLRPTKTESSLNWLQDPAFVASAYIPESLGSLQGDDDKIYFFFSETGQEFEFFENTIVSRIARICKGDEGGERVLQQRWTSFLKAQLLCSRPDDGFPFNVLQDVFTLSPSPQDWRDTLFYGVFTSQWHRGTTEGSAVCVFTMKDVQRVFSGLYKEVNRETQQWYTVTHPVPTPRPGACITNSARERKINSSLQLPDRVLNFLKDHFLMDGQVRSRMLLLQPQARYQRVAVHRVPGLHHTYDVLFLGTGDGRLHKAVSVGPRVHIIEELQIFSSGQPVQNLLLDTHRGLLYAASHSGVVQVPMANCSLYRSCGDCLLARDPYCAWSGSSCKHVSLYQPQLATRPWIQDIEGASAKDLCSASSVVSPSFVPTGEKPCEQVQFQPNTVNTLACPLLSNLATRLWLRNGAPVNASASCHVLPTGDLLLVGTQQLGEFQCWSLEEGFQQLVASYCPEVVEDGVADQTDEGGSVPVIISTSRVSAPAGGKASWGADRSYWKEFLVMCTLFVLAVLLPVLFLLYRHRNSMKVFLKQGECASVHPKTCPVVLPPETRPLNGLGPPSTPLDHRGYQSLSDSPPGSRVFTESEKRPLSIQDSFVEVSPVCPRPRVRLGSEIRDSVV
Procedure: To determine the specificity profile of each purified human Alya IgG1 conjugated to McMMAF, a dilution series was tested for binding to human SEMA4A, human SEMA4B and mock transfected cells (transient transfections set up in expi 293 cells.) The three assays employed methods described in section 2.3, using the appropriate cells and substituting the un-purified scFv periplasmic preparation with the human Alya IgG1 conjugated to McMMAF. Data was analysed as Count x median mean intensity (x FLU).

[3] = target: T1, human SEMA4A expressed on cells …; experiment: cell-based or functional assay
[4] = target: T1, human SEMA4A expressed on cells …; experiment: cell-based or functional assay; remark: listed apart in the source
[5] = target: T1, human SEMA4A expressed on cells …; experiment: cell-based or functional assay; remark: listed apart in the source

B1: 5Hg1-5Lg1 human Alya IgG1 conjugated to McMMAF (antibody, V domains shown)
VH: QVQLVQSGAEVKKPGASVKVSCKASGYTFTDYWMHWVRQAPGQGLEWMGAIDTSDSYTSYNQKFKGRVTMTRDTSTSTVYMELSSLRSEDTAVYYCARDYGNFYYYAMDYWGQGTLVTVSS
VL: QAVVTQEPSLTVSPGGTVTLTCRSSTGAVTTSNYANWFQQKPGQAPRTLIYGTNNRAPWTPARFSGSLLGGKAALTLSGAQPEDEAEYYCALWYSNHWVFGGGTKLTVL
modifications: McMMAF on the engineered cysteines 239iCys and S442C (EU numbering) of the heavy constant region
notes: Antibody-drug conjugate; human IgG1 Alya constant; also called 5Hg1/5Lg1-McMMAF
B1 was tested, and the Kd [1] was 1.46 nM, the binding result [2] was “no binding (tested: log (M) -8 (1e-8 M))” and the “EC50 (nM), Fab-pHast internalisation into NCI-H929” value (“EC50 (nM)” below) [3] was 0.54 nM. The “Fold-Change at 6 hours (10 nM), Fab-pHast internalisation” value (“Fold-Change at 6 hours (10 nM)” for short) [3] was 121 fold, the “Average KARPAS 25 IC50 [pM], cell kill” value [4] was 625 pM and the “Average MM1.S IC50 [pM], cell kill” value [4] was 35.8 pM. For the same binder, the “Average NCI-H929 IC50 [pM], cell kill” value [4] was 100 pM.

B2: 5Hg2-5Lg2 human Alya IgG1 conjugated to McMMAF (antibody, V domains shown)
VH: QVQLVQSGAEVKKPGASVKVSCKASGYTFTDYWMHWVRQAPGQRLEWMGAIDTSDSYTSYNQKFKGRVTITRDTSASTAYMELSSLRSEDTAVYYCARDYGNFYYYAMDYWGQGTLVTVSS
VL: QAVVTQEPSLTVSPGGTVTLTCRSSTGAVTTSNYANWFQQKPGQAPRTLIYGTNNRAPWTPARFSGSLLGGKAALTLLGAQPEDEAEYYCALWYSNHWVFGGGTKLTVL
modifications: McMMAF on the engineered cysteines 239iCys and S442C (EU numbering) of the heavy constant region
notes: Antibody-drug conjugate; human IgG1 Alya constant; also called 5Hg2/5Lg2-McMMAF
For B2, the Kd [1] was 2.46 nM, the binding result [2] was “no binding (tested: log (M) -8 (1e-8 M))” and the “EC50 (nM)” value [3] was 0.59 nM. The “Fold-Change at 6 hours (10 nM)” value [3] was 103 fold, the “Average KARPAS 25 IC50 [pM], cell kill” value [4] was 181 pM and the “Average MM1.S IC50 [pM], cell kill” value [4] was 10.7 pM. For the same binder, the “Average NCI-H929 IC50 [pM], cell kill” value [4] was 34.3 pM.

B3: mouse 5E3 as human Alya IgG1 conjugated to McMMAF (antibody, V domains shown)
VH: QVQLQQPGAELVMPGASVKMSCKASGYTFTDYWMHWVKQRPGQGLEWIGAIDTSDSYTSYNQKFKGKATLTVDESSSTAYMQLSSLTSEDSAVYYCARDYGNFYYYAMDYWGQGTSVTVSS
VL: QAVVTQESALTTSPGETVTLTCRSSTGAVTTSNYANWVQEKPDHLFTGLIGGTNNRAPGVPARFSGSLIGDKAALTITGAQTEDEAIYFCALWYSNHWVFGGGTKLTVL
modifications: McMMAF on the engineered cysteines 239iCys and S442C (EU numbering) of the heavy constant region
notes: Antibody-drug conjugate; human IgG1 Alya constant, drug-to-antibody ratio of four; also called Mouse 5E3-McMMAF
In the case of B3, the Kd [1] is reported as 3.18 nM, the “Average MM1.S IC50 [pM], cell kill” value [5] is reported as 5.8 pM and the “Average NCI-H929 IC50 [pM], cell kill” value [5] is reported as 5.1 pM. For the same binder, the binding result [2] was “no binding (tested: log (M) -8 (1e-8 M))”, the “EC50 (nM)” value [3] was 0.25 nM and the “Fold-Change at 6 hours (10 nM)” value [3] was 160 fold. For the same binder, the “Average KARPAS 25 IC50 [pM], cell kill” value [4] was 126 pM, the “Average MM1.S IC50 [pM], cell kill” value [4] was 5.95 pM and the “Average NCI-H929 IC50 [pM], cell kill” value [4] was 7.53 pM.

B4: C0120918 human Alya IgG1 conjugated to McMMAF (antibody, V domains shown)
VH: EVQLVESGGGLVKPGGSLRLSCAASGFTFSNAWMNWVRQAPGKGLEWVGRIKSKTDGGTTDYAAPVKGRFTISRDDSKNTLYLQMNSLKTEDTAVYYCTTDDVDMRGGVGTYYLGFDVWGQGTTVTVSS
VL: SYELTQPPSVSVSPGQTARITCSGDALPKQYAYWYQQKPGQAPVLVIYKDSERPSGIPERFSGSSSGTTVTLTISGVQAEDEADYYCQSADSSGTWVFGGGTKVTVL
modifications: McMMAF on the engineered cysteines 239iCys and S442C (EU numbering) of the heavy constant region
notes: Antibody-drug conjugate; human IgG1 Alya constant; also called C0120918-McMMAF
With B4 the Kd [1] was 1.6 nM, the “Average MM1.S IC50 [pM], cell kill” value [5] was 13.2 pM and the “Average NCI-H929 IC50 [pM], cell kill” value [5] was 55.8 pM. For the same binder, the binding result [2] was “no binding (tested: log (M) -8 (1e-8 M))”, the “EC50 (nM)” value [3] was 3.62 nM and the “Fold-Change at 6 hours (10 nM)” value [3] was 79 fold.
